The subject of series [1] is PCSK9 gene. Put plainly: PCSK9 gRNA/SpCas9 editing in primary cynomolgus hepatocytes (Tables 2, 22). As to conditions: SpCas9 mRNA MS002 1:1 by weight; for Cyno Primary Hepatocyte Editing % 100: 100 ng/RNA/mL; for Cyno Primary Hepatocyte Editing % 500: 500 ng/RNA/mL; for Cyno Primary Hepatocyte Editing % 2500: 2500 ng/RNA/mL. Type of series: cell-based, cynomolgus monkey.

The test system of series [2] is PCSK9 gene. As to the kind of experiment: PCSK9 gRNA/SpCas9 editing in primary human hepatocytes (Tables 2, 4). Type of series: cell-based. As to conditions: SpCas9 mRNA MS002 1:1 by weight; for Human Primary Hepatocyte Editing % 100: 100 ng/RNA/mL; for Human Primary Hepatocyte Editing % 500: 500 ng/RNA/mL; for Human Primary Hepatocyte Editing % 2500: 2500 ng/RNA/mL. The method, boiled down: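 Editing at the PCSK9 site quantified by NGS of PCR amplicons from genomic DNA. Input: SpCas9 mRNA with gRNA, 1:1 by weight, transfected into primary human hepatocytes at 2500, 500 or 100 ng RNA/mL (tracr-modified guides at 2500, 1250, 500, 250 ng/mL).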

In the oligonucleotide strings, read from the 5' end, every base follows the letter of its sugar. An asterisk marks phosphorothioate; unmarked linkages are phosphodiester. Other units and linkages are bracketed, terminal groups are in braces. A string of capitals states the bases alone. m = 2'-O-methyl; r = 2'-OH (RNA)

B1: GA245: PCSK9 gRNA; protospacer GTGCTGCTGCCCCTGGCGGG (SEQ ID NO: 238) (nucleic acid)
guide: GUGCUGCUGCCCCUGGCGGGGUUUUAGAGCUAGAAAUAGCAAGUUAAAAUAAGGCUAGUCCGUUAUCAACUUGAAAAAGUGGCACCGAGUCGGUGCUUUU
modifications: sugars from the 5' end m3 r94 m3, linkages s3 o93 s3 (s phosphorothioate, o phosphodiester), T or U not given here
With B1, in the series with PCSK9 gene [1], the “Cyno Primary Hepatocyte Editing % 100” value amounted to 0.19%, the “Cyno Primary Hepatocyte Editing % 500” value came to 0.88% and the “Cyno Primary Hepatocyte Editing % 2500” value worked out at 7.07%. In addition, in the series with PCSK9 gene [2], the “Human Primary Hepatocyte Editing % 100” value was found to be 1.68%, the “Human Primary Hepatocyte Editing % 500” value is 2.97% and the “Human Primary Hepatocyte Editing % 2500” value worked out at 2.9%.

B2: GA237: PCSK9 gRNA; protospacer CAACGCCGCCTGCCAGCGCC (SEQ ID NO: 230) (nucleic acid)
guide: CAACGCCGCCUGCCAGCGCCGUUUUAGAGCUAGAAAUAGCAAGUUAAAAUAAGGCUAGUCCGUUAUCAACUUGAAAAAGUGGCACCGAGUCGGUGCUUUU
modifications: sugars from the 5' end m3 r94 m3, linkages s3 o93 s3 (s phosphorothioate, o phosphodiester), T or U not given here
Take B2: in the series on PCSK9 gene [1], the “Cyno Primary Hepatocyte Editing % 100” value is 2.17%, the “Cyno Primary Hepatocyte Editing % 500” value is 13.46% and the “Cyno Primary Hepatocyte Editing % 2500” value was 46.01%. Besides, in the series with PCSK9 gene [2], the “Human Primary Hepatocyte Editing % 100” value was determined as 4.53%, the “Human Primary Hepatocyte Editing % 500” value was 15.83% and the “Human Primary Hepatocyte Editing % 2500” value was found to be 36.78%.

B3: GA163: PCSK9 gRNA; protospacer CGTCCTCGTCCTCCTGCGCA (SEQ ID NO: 157) (nucleic acid)
guide: CGUCCUCGUCCUCCUGCGCAGUUUUAGAGCUAGAAAUAGCAAGUUAAAAUAAGGCUAGUCCGUUAUCAACUUGAAAAAGUGGCACCGAGUCGGUGCUUUU
modifications: sugars from the 5' end m3 r94 m3, linkages s3 o93 s3 (s phosphorothioate, o phosphodiester), T or U not given here
In the case of B3, in the series on PCSK9 gene [1], the “Cyno Primary Hepatocyte Editing % 100” value is 5.99%, the “Cyno Primary Hepatocyte Editing % 500” value is on record as 17.69% and the “Cyno Primary Hepatocyte Editing % 2500” value was 49.50%. Also, in the series on PCSK9 gene [2], the “Human Primary Hepatocyte Editing % 100” value worked out at 2.31%, the “Human Primary Hepatocyte Editing % 500” value turned out to be 9.2% and the “Human Primary Hepatocyte Editing % 2500” value is recorded as 29.32%.

B4: GA162: PCSK9 gRNA; protospacer GGACGGCGACTACGAGGAGC (SEQ ID NO: 156) (nucleic acid)
guide: mG*mG*mA*rCrGrGrCrGrArCrUrArCrGrArGrGrArGrCrGrUrUrUrUrArGrArGrCrUrArGrArArArUrArGrCrArArGrUrUrArArArArUrArArGrGrCrUrArGrUrCrCrGrUrUrArUrCrArArCrUrUrGrArArArArArGrUrGrGrCrArCrCrGrArGrUrCrGrGrUrGrCrU*mU*mU*mU
In the case of B4, in the series with PCSK9 gene [1], the “Cyno Primary Hepatocyte Editing % 100” value came out at 1.62%, the “Cyno Primary Hepatocyte Editing % 500” value is 11.18% and the “Cyno Primary Hepatocyte Editing % 2500” value was found to be 28.26%. In the series on PCSK9 gene [2], the “Human Primary Hepatocyte Editing % 100” value was found to be 2.14%, the “Human Primary Hepatocyte Editing % 500” value was 12.97% and the “Human Primary Hepatocyte Editing % 2500” value came to 42.8%.

B5: GA247: PCSK9 gRNA; protospacer CCTCGCCAGGCGCTGGCAGG (SEQ ID NO: 240) (nucleic acid)
guide: CCUCGCCAGGCGCUGGCAGGGUUUUAGAGCUAGAAAUAGCAAGUUAAAAUAAGGCUAGUCCGUUAUCAACUUGAAAAAGUGGCACCGAGUCGGUGCUUUU
modifications: sugars from the 5' end m3 r94 m3, linkages s3 o93 s3 (s phosphorothioate, o phosphodiester), T or U not given here
As for B5, in the series with PCSK9 gene [1], the “Cyno Primary Hepatocyte Editing % 100” value was found to be 0.71%, the “Cyno Primary Hepatocyte Editing % 500” value is reported as 2.62% and the “Cyno Primary Hepatocyte Editing % 2500” value came to 11.48%. In the series with PCSK9 gene [2], the “Human Primary Hepatocyte Editing % 100” value amounted to 0.25%, the “Human Primary Hepatocyte Editing % 500” value turned out to be 0.17% and the “Human Primary Hepatocyte Editing % 2500” value is reported as 6.76%.

B6: GA167: PCSK9 gRNA; protospacer TCAGCTCCAGGCGGTCCTGG (SEQ ID NO: 161) (nucleic acid)
guide: UCAGCUCCAGGCGGUCCUGGGUUUUAGAGCUAGAAAUAGCAAGUUAAAAUAAGGCUAGUCCGUUAUCAACUUGAAAAAGUGGCACCGAGUCGGUGCUUUU
modifications: sugars from the 5' end m3 r94 m3, linkages s3 o93 s3 (s phosphorothioate, o phosphodiester), T or U not given here
Consider B6, for which, in the series on PCSK9 gene [1], the “Cyno Primary Hepatocyte Editing % 100” value amounted to 11.98%, the “Cyno Primary Hepatocyte Editing % 500” value is given as 35.98% and the “Cyno Primary Hepatocyte Editing % 2500” value was 66.07%. Besides, in the series with PCSK9 gene [2], the “Human Primary Hepatocyte Editing % 100” value turned out to be 8.2%, the “Human Primary Hepatocyte Editing % 500” value amounted to 25.87% and the “Human Primary Hepatocyte Editing % 2500” value came out at 53.71%.

B7: GA239: PCSK9 gRNA; protospacer CCGCCTGCCAGCGCCTGGCG (SEQ ID NO: 232) (nucleic acid)
guide: CCGCCUGCCAGCGCCUGGCGGUUUUAGAGCUAGAAAUAGCAAGUUAAAAUAAGGCUAGUCCGUUAUCAACUUGAAAAAGUGGCACCGAGUCGGUGCUUUU
modifications: sugars from the 5' end m3 r94 m3, linkages s3 o93 s3 (s phosphorothioate, o phosphodiester), T or U not given here
As for B7, in the series with PCSK9 gene [1], the “Cyno Primary Hepatocyte Editing % 100” value was found to be 0.02%, the “Cyno Primary Hepatocyte Editing % 500” value turned out to be 0.55% and the “Cyno Primary Hepatocyte Editing % 2500” value worked out at 4.55%. In the series on PCSK9 gene [2], the “Human Primary Hepatocyte Editing % 100” value turned out to be 0.06%, the “Human Primary Hepatocyte Editing % 500” value worked out at 1.73% and the “Human Primary Hepatocyte Editing % 2500” value turned out to be 3.49%.

B8: GA240: PCSK9 gRNA; protospacer TGCCAGCGCCTGGCGAGGGC (SEQ ID NO: 233) (nucleic acid)
guide: UGCCAGCGCCUGGCGAGGGCGUUUUAGAGCUAGAAAUAGCAAGUUAAAAUAAGGCUAGUCCGUUAUCAACUUGAAAAAGUGGCACCGAGUCGGUGCUUUU
modifications: sugars from the 5' end m3 r94 m3, linkages s3 o93 s3 (s phosphorothioate, o phosphodiester), T or U not given here
On to B8, for which, in the series with PCSK9 gene [1], the “Cyno Primary Hepatocyte Editing % 100” value stood at 0.52%, the “Cyno Primary Hepatocyte Editing % 500” value amounted to 1.9% and the “Cyno Primary Hepatocyte Editing % 2500” value stood at 10.62%. In the series on PCSK9 gene [2], the “Human Primary Hepatocyte Editing % 100” value is given as 1.05%, the “Human Primary Hepatocyte Editing % 500” value is recorded as 0.24% and the “Human Primary Hepatocyte Editing % 2500” value amounted to 7.94%.

B9: GA164: PCSK9 gRNA; protospacer GTCCTCGTCCTCCTGCGCAC (SEQ ID NO: 158) (nucleic acid)
guide: GUCCUCGUCCUCCUGCGCACGUUUUAGAGCUAGAAAUAGCAAGUUAAAAUAAGGCUAGUCCGUUAUCAACUUGAAAAAGUGGCACCGAGUCGGUGCUUUU
modifications: sugars from the 5' end m3 r94 m3, linkages s3 o93 s3 (s phosphorothioate, o phosphodiester), T or U not given here
For the molecule B9, in the series with PCSK9 gene [1], the “Cyno Primary Hepatocyte Editing % 100” value was found to be 2.75%, the “Cyno Primary Hepatocyte Editing % 500” value was found to be 13.96% and the “Cyno Primary Hepatocyte Editing % 2500” value was found to be 34.89%. Also, in the series on PCSK9 gene [2], the “Human Primary Hepatocyte Editing % 100” value is listed as 2.68%, the “Human Primary Hepatocyte Editing % 500” value came to 11.12% and the “Human Primary Hepatocyte Editing % 2500” value is reported as 25.77%.

B10: GA165: PCSK9 gRNA; protospacer CCGTCAGCTCCAGGCGGTCC (SEQ ID NO: 159) (nucleic acid)
guide: CCGUCAGCUCCAGGCGGUCCGUUUUAGAGCUAGAAAUAGCAAGUUAAAAUAAGGCUAGUCCGUUAUCAACUUGAAAAAGUGGCACCGAGUCGGUGCUUUU
modifications: sugars from the 5' end m3 r94 m3, linkages s3 o93 s3 (s phosphorothioate, o phosphodiester), T or U not given here
Take B10: in the series on PCSK9 gene [1], the “Cyno Primary Hepatocyte Editing % 100” value is 5.43%, the “Cyno Primary Hepatocyte Editing % 500” value was 18.00% and the “Cyno Primary Hepatocyte Editing % 2500” value was found to be 35.57%. Also, in the series on PCSK9 gene [2], the “Human Primary Hepatocyte Editing % 100” value stood at 4.99%, the “Human Primary Hepatocyte Editing % 500” value is 22.3% and the “Human Primary Hepatocyte Editing % 2500” value is given as 40.27%.

B11: GA241: PCSK9 gRNA; protospacer TGCTGCTGCCCCTGGCGGGT (SEQ ID NO: 234) (nucleic acid)
guide: UGCUGCUGCCCCUGGCGGGUGUUUUAGAGCUAGAAAUAGCAAGUUAAAAUAAGGCUAGUCCGUUAUCAACUUGAAAAAGUGGCACCGAGUCGGUGCUUUU
modifications: sugars from the 5' end m3 r94 m3, linkages s3 o93 s3 (s phosphorothioate, o phosphodiester), T or U not given here
Turning to B11, in the series with PCSK9 gene [1], the “Cyno Primary Hepatocyte Editing % 100” value is 0.97%, the “Cyno Primary Hepatocyte Editing % 500” value is listed as 2.94% and the “Cyno Primary Hepatocyte Editing % 2500” value is recorded as 16.11%. Further, in the series on PCSK9 gene [2], the “Human Primary Hepatocyte Editing % 100” value was determined as 0.61%, the “Human Primary Hepatocyte Editing % 500” value was 1.49% and the “Human Primary Hepatocyte Editing % 2500” value came to 5.39%.

B12: GA166: PCSK9 gRNA; protospacer CGCCCGTGCGCAGGAGGACG (SEQ ID NO: 160) (nucleic acid)
guide: CGCCCGUGCGCAGGAGGACGGUUUUAGAGCUAGAAAUAGCAAGUUAAAAUAAGGCUAGUCCGUUAUCAACUUGAAAAAGUGGCACCGAGUCGGUGCUUUU
modifications: sugars from the 5' end m3 r94 m3, linkages s3 o93 s3 (s phosphorothioate, o phosphodiester), T or U not given here
As for B12, in the series with PCSK9 gene [1], the “Cyno Primary Hepatocyte Editing % 100” value is reported as 3.93%, the “Cyno Primary Hepatocyte Editing % 500” value was found to be 14.39% and the “Cyno Primary Hepatocyte Editing % 2500” value amounted to 44.77%. Also, in the series on PCSK9 gene [2], the “Human Primary Hepatocyte Editing % 100” value is 2.89%, the “Human Primary Hepatocyte Editing % 500” value was 10.99% and the “Human Primary Hepatocyte Editing % 2500” value is 36.89%.

B13: GA246: PCSK9 gRNA; protospacer GCCAGCGCCTGGCGAGGGCT (SEQ ID NO: 239) (nucleic acid)
guide: GCCAGCGCCUGGCGAGGGCUGUUUUAGAGCUAGAAAUAGCAAGUUAAAAUAAGGCUAGUCCGUUAUCAACUUGAAAAAGUGGCACCGAGUCGGUGCUUUU
modifications: sugars from the 5' end m3 r94 m3, linkages s3 o93 s3 (s phosphorothioate, o phosphodiester), T or U not given here
B13: in the series on PCSK9 gene [1], the “Cyno Primary Hepatocyte Editing % 100” value was determined as 1.11%, the “Cyno Primary Hepatocyte Editing % 500” value came to 5.78% and the “Cyno Primary Hepatocyte Editing % 2500” value stood at 24.63%. In the series with PCSK9 gene [2], the “Human Primary Hepatocyte Editing % 100” value is given as 0.08%, the “Human Primary Hepatocyte Editing % 500” value worked out at 2.17% and the “Human Primary Hepatocyte Editing % 2500” value was found to be 17.95%.

The record behind these values is patent US20250152746A1, “BASE EDITING OF ANGPTL3 AND METHODS OF USING SAME FOR TREATMENT OF DISEASE” (Verve Therapeutics, Inc., priority 2020, published 2025).
